Consider 5 molecules from patent US20160031996A1 (CSL, published 2016).

Positions count from the first letter of the chain named. In names and notes the source's numbering stands.

The target in assay [1] is T1, full length human IL-3Rα, wild type (human, UniProt P26951 19-378).
T1 construct: expressed in 293F cells; also called WT
T1 sequence: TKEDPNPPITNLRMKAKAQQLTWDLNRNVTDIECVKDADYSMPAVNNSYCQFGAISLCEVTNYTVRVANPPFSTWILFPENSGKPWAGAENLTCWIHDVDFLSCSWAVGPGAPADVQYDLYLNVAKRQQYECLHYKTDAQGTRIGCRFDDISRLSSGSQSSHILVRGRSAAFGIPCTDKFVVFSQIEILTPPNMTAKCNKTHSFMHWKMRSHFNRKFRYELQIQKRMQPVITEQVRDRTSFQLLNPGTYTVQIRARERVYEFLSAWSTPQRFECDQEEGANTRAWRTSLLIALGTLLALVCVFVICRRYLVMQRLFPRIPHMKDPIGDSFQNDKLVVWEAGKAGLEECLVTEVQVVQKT
In words: flow cytometry, MFI normalised to WT (reference, set as 100%). The protocol:
Median fluorescence intensity (MFI) of each antibody was determined for WT IL-3Rα and for each IL-3Rα mutant. The MFI of WT IL-3Rα staining for each antibody was set as 100% then the MFI of each mutant was normalized to a percent of WT staining.
(A flow cytometer gives signals particle by particle.)

Assay [2] has as its target human IL-3Rα S59A/P88T double mutant, full length (human) (UniProt P26951). Description: flow cytometry, MFI normalised to WT.
Assay [3] deals with human IL-3Rα E51Q/S59A/P88T triple mutant, full length (human) (UniProt P26951). Description: flow cytometry, MFI normalised to WT.
Assay [4] concerns the target human IL-3Rα E51Q/P88T double mutant, full length (human) (UniProt P26951). Description: flow cytometry, MFI normalised to WT.
Assay [5] addresses human IL-3Rα E51Q/S59A double mutant, full length (human) (UniProt P26951). Description: flow cytometry, MFI normalised to WT.
In another assay the target is T2, human IL-3 (human, UniProt P08700 20-152).
T2 sequence (looked up): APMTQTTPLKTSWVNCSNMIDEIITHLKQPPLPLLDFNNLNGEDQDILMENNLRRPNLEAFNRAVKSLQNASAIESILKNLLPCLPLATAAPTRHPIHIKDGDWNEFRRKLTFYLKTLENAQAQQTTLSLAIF
Description: flow cytometry, 293F cells expressing mutant IL-3Rα and CD131. Here is the method: STAT5 activity was measured by flow cytometry after intracellular staining with a phosphoSTAT5 antibody (pSTAT5).

As to “anti-human IL-3Rα monoclonal antibody 9F5”, the MFI as percent of WT staining in assay [1] was 100 % of WT MFI; in assay [2], 95.6 % of WT MFI; in assay [3] it was 32.7 % of WT MFI; in assay [4], 70.1 % of WT MFI; in assay [5] it was 87 % of WT MFI.

B1: human IL-3Rα E51Q/S59A double mutant, full length (receptor)
chain: T1 sequence with E33Q, S41A
With B1, in the assay with human IL-3, the binding result is on record as “binds”.

B2: human IL-3Rα E51Q/S59A/P88T triple mutant, full length (receptor)
chain: T1 sequence with E33Q, S41A, P70T
Turning to B2, the binding result with human IL-3 was “binds”.

B3: human IL-3Rα S59A/P88T double mutant, full length (receptor)
chain: T1 sequence with S41A, P70T
On to B3, for which the binding result in the assay with human IL-3 was “binds”.

B4: human IL-3Rα E51Q/P88T double mutant, full length (receptor)
chain: T1 sequence with E33Q, P70T
On to B4, for which, in the assay with human IL-3, the binding result was “binds”.
